One molecule from patent publication EP0842948B1 (MOCHIDA PHARMACEUTICAL CO., LTD., dated 2009) can be followed below.

Values joined by “and” are separate entries in the source; they are usually repeats but may differ in a detail not shown here. Equal values may be shown once.

Experiment [1] concerns the target T1, human Fas ligand expressed on 1A12 cells (human, UniProt P48023 1-281).
T1 construct: whole, on cells; also called Fas ligand antigen on 1A12 transfectant cells
T1 sequence (looked up): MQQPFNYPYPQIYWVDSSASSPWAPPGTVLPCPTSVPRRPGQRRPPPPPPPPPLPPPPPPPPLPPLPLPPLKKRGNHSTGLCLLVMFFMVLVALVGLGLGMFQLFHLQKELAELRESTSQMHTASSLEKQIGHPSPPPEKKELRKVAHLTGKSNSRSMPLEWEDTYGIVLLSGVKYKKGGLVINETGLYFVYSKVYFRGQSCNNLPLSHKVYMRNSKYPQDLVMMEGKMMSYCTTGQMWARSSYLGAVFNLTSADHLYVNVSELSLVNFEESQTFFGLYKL
In words: competitive binding against 125I-labelled mouse F919 on 1A12 cells.

In experiment [2] the target is extracellular domain of the Fas ligand derived from COS-1 cell (human). The experiment in a line: cell-based or functional assay.

B1: mouse monoclonal antibody F919-9-18 (antibody, V domains shown)
VH: QIQLVQSGPELKKPGETVKISCKASGYTFTEYPMHWVKQAPGKGFKWMGMIYTDTGEPSYAEEFKGRFAFSLETSASTAYLQINFLKNEDTATYFCVRFYWDYFDYWGQGTTLTVSS
VL: DIQMTQTTSSLSASLGDRVTISCRASQDISNYLNWYQQKPDGTVKLLIYYTSRLHSGVPSRFSGSGSGTNYSLTISNLEQGDIATYFCQQGSTLPWTFGGGTKLEIK
As to B1, the Ka in experiment [1] was 3e+08 M⁻¹ and 4e+08 M⁻¹. Also, the apoptosis-suppression activity (fold against F883-1-1) in experiment [2] turned out to be 100.
